Reference: US9663561B2, “Methods of treatment of cancer using SRC-modulating peptides” (The University of Toledo, priority 2006, dated 2017)

B1: GST-SH2: GST fusion of Src SH2 domain (protein)
chain: WYFGKITRRESERLLLNPENPRGTFLVRESETTKGAYCLSVSDFDNAKGLNVKHYKIRKLDSGGFYITSRTQFSSLQQLVAYYSKHADGLCHRLTNVC
modifications: left off: a dimerising Fc or GST
notes: GST fusion of Src SH2 domain
B2: GST-SERCA-CD3: GST fusion of the CD3 from rat heart SERCA 2a (protein)
chain: GTRRMAKKNAIVRSLPSVETLGCTSVICSDKTGTLTTNQMSVCRMFILDKVEGDTCSLNEFTITGSTYAPIGEVQKDDKPVKCHQYDGLVELATICALCNDSALDYNEAKGVYEKVGEATETALTCLVEKMNVFDTELKGLSKIERANACNSVIKQLMKKEFTLEFSRDRKSMSVYCTPNKPSRTSMSKMFVKGAPEGVIDRCTHIRVGSTKVPMTPGVKQKIMSVIREWGSGSDTLRCLALATHDNPLRREEMHLEDSANFIKYETNLTFVGCVGMLDPPRIEVASSVKLCRQAGIRVIMITGDNKGTAVAICRRIGIFGQDEDVTSKAFTGREFDELSPSAQRDACLNARCFARVEPSHKSKIVEFLQSFDEITAMTGDGVNDAPALKKSEIGIAMGSGTAVAKTASEMVLADDNFSTIVAAVEEGRAIYNNMKQFIRYLISSNV
B3: GST-kinase: GST fusion of Src kinase domain (protein)
chain: QTQGLAKDAWEIPRESLRLEVKLGQGCFGEVWMGTWNGTTRVAIKTLKPGTMSPEAFLQEAQVMKKLRHEKLVQLYAVVSEEPIYIVTEYMSKGSLLDFLKGEMGKYLRLPQLVDMAAQIASGMAYVERMNYVHRDLRAANILVGENLVCKVADFGLARLIEDNEYTARQGAKFPIKWTAPEAALYGRFTIKSDVWSFGILLTELTTKGRVPYPGMVNREVLDQVERGYRMPCPPECPESLHDLMCQCWRKDPEERPTFEYLQAFLEDYFTSTEPQYQPGENL
modifications: left off: a dimerising Fc or GST
notes: GST fusion of Src kinase domain

Assays:
purified Na+/K+-ATPase = target: T1, purified Na+/K+-ATPase (Sus scrofa, UniProt P05024); assay: In vitro GST pulldown binding assay with purified Na+/K+-ATPase; parameters: species or system pig; conditions: 2 μg purified Na+/K+-ATPase per assay
T1 construct: Na+/K+-ATPase was purified from pig kidney outer medulla using the Jorgensen method; from tissue; host or cells: pig kidney outer medulla
Experimental: The purified Na+/K+-ATPase was solubilized in 1% Triton X-100 PBS and centrifuged at 100,000×g for 30 min. The supernatant was collected for the binding assay. GST-fusion proteins (5 μg) were conjugated on glutathione beads and incubated with the solubilized Na+/K+-ATPase in 500 μl PBS in the presence of 0.5% Triton X-100 at room temperature for 30 min. The beads were washed with the same buffer for four times. The bound Na+/K+ATPase was resolved on 10% SDS-PAGE and detected by Western blot. Reciprocal binding assay using GST-Na+/K+-ATPase constructs (5 μg) and purified Src lacking of first 85 amino acids (200 ng) or His-tagged Src constructs (100 ng) was done similarly. To test if native Na+/K+-ATPase binds Src, the above experiments were repeated in the absence of Triton X-100. To make the Na+/K+-ATPase/Src complex, 2-5 μg of the purified Na+/K+ATPase was incubated with 4.5 U of Src (˜10 ng) in PBS in the absence of Triton X-100 at room temperature for 30 min. The complex was either used for the experiments directly as indicated or collected by centrifugation at 100,000×g for 30 min.

Src = target: T2, Src (Sus scrofa, UniProt K7GM45); assay: GST-CD3 pulldown of Src from LLC-PK1 cell lysates; type: binding, pig; conditions: 1 mg LLC-PK1 cell lysates
T2 construct: endogenous in cells; host or cells: LLC-PK1 (pig kidney)
Experimental: FIG. 4C. A Western blot showing that Src was pulled down by GST-CD3 of Na+/K+-ATPase (Na/K) and H+/K+-ATPase (H/K), but not SERCA from 1 mg LLC-PK1 cell lysates.
Cells were lysed in RIPA buffer containing 1% Nonidet P40, 0.25% sodium deoxycholate, 150 mM NaCl, 1 mM EDTA, 1 mM phenylmethylsulfonyl fluoride, 1 mM sodium orthovanadate, 1 mM NaF, 10 μg/ml aprotinin, 10 μg/mlleupeptin, and 50 mM Tris-HCl (pH 7.4). Cell lysates were cleared by centrifugation at 16,000×g for […], and the supernatants (1 mg) were either immunoprecipitated with anti-α1 antibody or incubated with different GST-fusion proteins. The complexes were then pulled down by either protein G agarose or glutathione beads (Ma et al., 2000; Haas et al., 2002) and analyzed by Western blot.

[1] = target: T3, Na+/K+-ATPase/Src complex (Sus scrofa, UniProt P05024); assay: Src pY418 phosphorylation of the Na+/K+-ATPase/Src complex (Western blot); type: biochemical; conditions: 5 μg GST fusion preincubated with 2 μg Na+/K+-ATPase before adding Src (4.5 U)
T3 construct: Na+/K+-ATPase was purified from pig kidney outer medulla using the Jorgensen method; tissue Upstate Biotechnology (Src only); host or cells: pig kidney outer medulla (Na+/K+-ATPase)
Experimental: The Src kinase activity was assayed using a commercial kit (Haas et al., 2000). To determine how Na+/K+-ATPase affects Src kinase activity, the purified Src (4.5 U) was incubated with 5 μg of the purified Na+/K+-ATPase in the Src assay buffer for 30 min at room temperature. Afterward, both control Src or the Na+/K+-ATPase-bound Src were exposed to 10 μM ouabain and Src kinase activity was determined. In other experiments, the Src pY418 was measured by anti-pY418 antibody to indicate Src activation (Ma et al., 2000). To do so, the purified Src (4.5 U) was incubated with different amounts of the purified Na+/K+-ATPase or GST-Na+/K+ATPase constructs in phosphate-buffered saline (PBS) for 30 min at 37° C. Afterward, 2 mM ATP/Mg2+ was added. The reaction continued for 5 min at 37° C. and was stopped by addition of SDS sample buffer.
The purified Na+/K+-ATPase was solubilized in 1% Triton X-100 PBS and centrifuged at 100,000×g for 30 min. The supernatant was collected for the binding assay. GST-fusion proteins (5 μg) were conjugated on glutathione beads and incubated with the solubilized Na+/K+-ATPase in 500 μl PBS in the presence of 0.5% Triton X-100 at room temperature for 30 min. The beads were washed with the same buffer for four times. The bound Na+/K+ATPase was resolved on 10% SDS-PAGE and detected by Western blot. […]

Molecule	binding to the Na+/K+-ATPase (purified Na+/K+-ATPase)	pulldown of Src from LLC-PK1 cell lysates (Src)	Src pY418 in presence of Na+/K+-ATPase [1]
B1	Binding	–	–
B2	–	not	–
B3	Binding	–	significantly increased Src pY418
